Source: publication PMC4303294 (Biochemistry, 2014)

Target: the molecule itself
Test: SEC

B1: nitrophorin 4 (NP4) reconstituted with the symmetrical hemin, 2,4-dimethyldeuterohemin (natural protein, Rhodnius prolixus, UniProt Q94734 22-205, looked up)
chain: ACTKNAIAQTGFNKDKYFNGDVWYVTDYLDLEPDDVPKRYCAALAAGTASGKLKEALYHYDPKTQDTFYDVSELQVESLGKYTANFKKVDKNGNVKVAVTAGNYYTFTVMYADDSSALIHTCLHKGNKDLGDLYAVLNRNKDAAAGDKVKSAVSAATLEFSKFISTKENNCAYDNDSLKSLLTK
stoichiometry N: 2
